Literature values in article PMC5095918.

Molecular target: FANCL RING (Homo sapiens) (UniProt Q9NW38)
Sequence of UniProt Q9NW38 (Q9NW38 304-366): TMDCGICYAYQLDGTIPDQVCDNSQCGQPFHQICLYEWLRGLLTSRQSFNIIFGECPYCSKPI

Kd: 450 nM
Substance: UBE2T (from UniProt Q9NPD8)
